Source: paper PMC4359589

Biological target: VipB (Vibrio cholerae)
Assay: cryo-EM structure

Work on VipA (natural protein) yielded a stoichiometry N of 1.
